Test results from patent US20160089418A1.

Key:
human IFN-beta (human) = human IFN-beta (human) (UniProt P01574); assay: cell-based or functional assay
[1] = target: recombinant human IFN-alpha (human); assay: cell-based or functional assay

Sequence of UniProt P01574 (P01574 22-187 limits assumed): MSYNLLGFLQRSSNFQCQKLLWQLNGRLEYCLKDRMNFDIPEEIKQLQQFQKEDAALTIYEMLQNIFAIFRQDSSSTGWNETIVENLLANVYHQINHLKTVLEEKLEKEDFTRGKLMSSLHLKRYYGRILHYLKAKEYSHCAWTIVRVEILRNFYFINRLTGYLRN

Substance: Vaccinia virus B19 IFN-binding protein (full length protein) (from UniProt P25213 20-351)
- percent neutralization of IFN at a 1:400 dilution of the medium (human IFN-beta (human)): > 50%
- percent neutralization of IFN at a 1:400 dilution of the medium [1]: > 80%
